Results on one molecule are retold here after PMC6142190, “FIH permits NAA10 to catalyze the oxygen-dependent lysyl-acetylation of HIF-1α” (Redox Biology, 2018).

The assay deals with T1, GST-FIH (human, UniProt Q9NWT6 1-349).
T1 construct: human FIH, cDNA NM_017902.2 in pGEX; also called recombinant FIH
Description: pull-down; GST-FIH and His-NAA10 WT or W38F in binding buffer, 4 °C, 1 h; nickel affinity beads; Western blot. The conditions noted are these: both partners purified.

T1 sequence (Q9NWT6 whole entry): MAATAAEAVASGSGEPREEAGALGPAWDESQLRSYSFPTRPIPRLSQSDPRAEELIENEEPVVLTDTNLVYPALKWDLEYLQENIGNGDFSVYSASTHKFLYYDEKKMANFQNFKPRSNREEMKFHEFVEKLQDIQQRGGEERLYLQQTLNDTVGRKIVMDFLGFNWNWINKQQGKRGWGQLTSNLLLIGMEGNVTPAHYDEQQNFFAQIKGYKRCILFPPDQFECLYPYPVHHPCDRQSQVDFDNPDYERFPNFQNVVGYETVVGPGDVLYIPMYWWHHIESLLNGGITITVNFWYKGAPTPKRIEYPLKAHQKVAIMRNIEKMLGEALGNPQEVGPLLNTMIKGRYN

B1: His(6)-NAA10 W38F (enzyme, human, UniProt P41227-1 1-235, looked up)
chain: MNIRNARPEDLMNMQHCNLLCLPENYQMKYYFYHGLSFPQLSYIAEDENGKIVGYVLAKMEEDPDDVPHGHITSLAVKRSHRRLGLAQKLMDQASRAMIENFNAKYVSLHVRKSNRAALHLYSNTLNFQISEVEPKYYADGEDAYAMKRDLTQMADELRRHLELKEKGRHVVLGAIENKVESKGNSPPSSGEACREEKGLAAEDSGGDSKDLSEVSETTESTDVKDSSEASDSAS
notes: human NAA10, cDNA NM_003491 in pET-28c-HIS, with W38F by PCR-based mutagenesis; also called W38F mutant; source: E. coli BL21, purified (Nickel-NTA beads, eluted with imidazole)
For B1, the binding result is given as “binds”.
